Test [1] has as its target HTE20N (the first 27 residues of HTE20, amino acids 358–384 of HTE) (human) (UniProt P15502). Put plainly: ELISA; HTE17-20, HTE20, HTE20N, HTE20C or BSA coated (1 μM/well); GST tagged LigB4 or LigB12 titrated 0 to 10 μM, 1 h at 37°C; HRP anti-GST; KD from a saturation fit of OD630.
Test [2] has as its target HTE17-20 (17th to 20th exon of human tropoelastin) (human). Put plainly: ELISA; HTE truncates, HTE20 mutants or BSA coated (1 μM/well, 0.1 M NaHCO3 pH 9.4), blocked with 3% BSA in PBS; 5 μM GST tagged LigB4 or LigB12 applied 1 h at 37°C; HRP anti-GST; fold over BSA or percent of wild-type HTE20. (ELISA stands for enzyme-linked immunosorbent assay.)
Test [3] addresses HTE18 (18th exon of human tropoelastin) (human). The description is as above.
In test [4] the target is HTE19-20 (19th to 20th exon of human tropoelastin) (human). The test is described as above.
Test [5] has as its target HTE20 (20th exon of human tropoelastin) (human) (UniProt P15502). The test is described as above.
Test [6] concerns the target HTE20 mutant F378A (human) (UniProt P15502). The test is described as above.
Test [7] deals with HTE20 mutant F381A (human) (UniProt P15502). The test is described as above.
The target in test [8] is HTE20 mutant R360A (human) (UniProt P15502). Described as above.
For test [9], the target named is HTE20 mutant Y371A (human) (UniProt P15502). Described as above.
Test [10] has as its target HTE25-27 (25th to 27th exon of human tropoelastin) (human). The test is described as above.
The target of test [11] is tag free LigB12 (amino acids 1,047–1,119 in LigB) (L. interrogans serovar Pomona). Put plainly: SPR; Biacore 3000; tag free LigB12 immobilised on CM5 (about 1,000 RU); HTE truncates 0 to 5 μM injected in PBS at 30 μL/min, 25°C; 1:1 Langmuir model. (Surface plasmon resonance follows binding to a sensor surface in real time, without labels.)
The target of test [12] is LigB12-12-5 chimera (L. interrogans serovar Pomona). Put plainly: ELISA; tag-free LigB5/LigB12 and LigB7/LigB10 chimeras and wild-type domains coated (1 μM/well); 5 μM histidine tagged HTE17-20, HTE20 or HTE20N applied; anti-His detection.
Test [13] addresses LigB12-5-12 chimera (L. interrogans serovar Pomona). The description is as above.
The next test concerns the target histidine tagged HTE20 (UniProt P15502). Put plainly: ELISA. To be noted: 10 µM His-HTE20 applied to wells coated with LigB12 construct (1 µM/well); detected by anti-His antibodies; parent: est. 0.73; read off a plot.
Another test has as its target histidine tagged HTE20N (UniProt P15502). Put plainly: ELISA. The conditions noted are these: 10 µM His-HTE20N applied to wells coated with LigB12 construct (1 µM/well); detected by anti-His antibodies; parent: est. 1.05; read off a plot.
In test [14] the target is LigA on the surface of L. biflexa serovar Patoc ligA.

Chain of HTE17-20 (17th to 20th exon of human tropoelastin) (human) (P15502 297-438): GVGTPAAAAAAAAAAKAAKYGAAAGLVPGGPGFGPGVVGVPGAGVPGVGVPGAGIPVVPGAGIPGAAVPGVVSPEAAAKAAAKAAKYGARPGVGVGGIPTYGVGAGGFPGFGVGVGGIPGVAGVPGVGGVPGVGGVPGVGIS
Chain of HTE20N (the first 27 residues of HTE20, amino acids 358–384 of HTE) (human) (P15502 358-384): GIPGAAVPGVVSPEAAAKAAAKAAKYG
Chain of HTE20 (20th exon of human tropoelastin) (human) (P15502 358-412): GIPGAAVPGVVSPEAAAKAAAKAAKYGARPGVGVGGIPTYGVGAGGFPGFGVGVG
Chain of histidine tagged HTE20N (P15502 whole entry, looked up): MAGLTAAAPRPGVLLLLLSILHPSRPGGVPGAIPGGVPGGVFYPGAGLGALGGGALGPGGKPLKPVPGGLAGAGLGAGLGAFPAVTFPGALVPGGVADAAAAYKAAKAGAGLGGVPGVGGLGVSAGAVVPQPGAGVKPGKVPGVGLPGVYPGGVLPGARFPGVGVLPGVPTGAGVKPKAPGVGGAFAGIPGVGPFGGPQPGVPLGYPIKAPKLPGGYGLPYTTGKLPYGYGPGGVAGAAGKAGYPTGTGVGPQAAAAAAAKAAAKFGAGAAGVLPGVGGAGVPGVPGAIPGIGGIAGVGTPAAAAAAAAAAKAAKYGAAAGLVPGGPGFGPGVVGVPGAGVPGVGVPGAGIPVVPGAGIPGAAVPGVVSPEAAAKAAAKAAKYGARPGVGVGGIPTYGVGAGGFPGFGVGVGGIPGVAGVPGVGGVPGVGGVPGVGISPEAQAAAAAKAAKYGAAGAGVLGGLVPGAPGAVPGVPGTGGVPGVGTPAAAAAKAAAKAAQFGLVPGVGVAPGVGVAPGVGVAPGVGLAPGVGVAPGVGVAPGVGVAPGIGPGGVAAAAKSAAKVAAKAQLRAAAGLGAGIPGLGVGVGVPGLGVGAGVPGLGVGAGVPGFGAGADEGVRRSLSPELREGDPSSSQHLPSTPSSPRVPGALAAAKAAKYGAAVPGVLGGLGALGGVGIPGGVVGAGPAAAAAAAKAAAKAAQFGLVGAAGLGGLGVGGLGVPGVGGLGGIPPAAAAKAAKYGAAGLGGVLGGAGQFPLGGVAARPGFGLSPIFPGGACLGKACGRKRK
Chain of histidine tagged HTE20 (P15502 whole entry, looked up): as above

For the substance “GST tagged LigB12 (amino acids 1,047–1,119 in LigB) (domain or fragment)”, the Kd in test [1] came to 860 nM. The fold binding over BSA (negative control) was determined as 5.7 fold in [2]; 2 fold in test [3]; 4.5 fold in test [4]; 4.4 fold in [5]; 3 fold in test [10]. The percent decrease of binding against wild-type HTE20 worked out at 62% in test [6] and 54% in test [8]. Also, the percent of wild-type HTE20 binding in [7] and in test [9] was 35% throughout.
In test [1], “GST tagged LigB4 (amino acids 307–403 in LigB) (domain or fragment)” had a dissociation constant Kd of 860 nM. For the same substance, the fold binding over BSA (negative control) in [2] was found to be 5.7 fold; in test [3], 2 fold; in test [4], 4.5 fold; in [5] it was 4.4 fold. The percent of wild-type HTE20 binding stood at 35% in test [6] and 32% in [8]. For the same substance, the percent decrease of binding against wild-type HTE20 in test [7] was 54%; in [9], 61%.
In [11], “HTE19-20 (19th to 20th exon of human tropoelastin) (domain or fragment)” returned a Kd of 1340 nM, a koff of 0.0043 s⁻¹ and a kon of 3100 M⁻¹ s⁻¹.
Take “histidine tagged HTE17-20 (domain or fragment)”: the percent of wild-type LigB12 binding in test [12] worked out at 90%; in test [13] it was 80%.
Consider “tag free LigB12 (amino acids 1,047–1,119 in LigB) A1065K”, for which the response with histidine tagged HTE20 came out at 0.11 OD630; in the test with histidine tagged HTE20N it was 0.09 OD630.
In the case of “HTE17-20 (17th to 20th exon of human tropoelastin) (domain or fragment)”, the inhibition of the adhesion of LigA-expressing L. biflexa (Patoc ligA) to WI-38 cells after pre-incubation with HTE17-20, 10 to 0.156 μM; ELISA with hamster anti-L. biflexa sera in test [14] is 61%.

One may read the Kd as the constant that tells how readily two partners part at equilibrium. Broadly, the koff is the first-order rate constant of dissociation. Lower therefore signals a long-lived complex. A word on the kon: it is a measure of how fast the partners come together. Higher therefore signals faster complex formation.

The values above are taken from article PMC5422739.
